Assay results as given in US20190256864A1 (INDIANA UNIVERSITY RESEARCH AND TECHNOLOGY, published 2019).

How the values were obtained:
HvPBS1-1:HA = molecular target: T1, HvPBS1-1:HA
T1 chain: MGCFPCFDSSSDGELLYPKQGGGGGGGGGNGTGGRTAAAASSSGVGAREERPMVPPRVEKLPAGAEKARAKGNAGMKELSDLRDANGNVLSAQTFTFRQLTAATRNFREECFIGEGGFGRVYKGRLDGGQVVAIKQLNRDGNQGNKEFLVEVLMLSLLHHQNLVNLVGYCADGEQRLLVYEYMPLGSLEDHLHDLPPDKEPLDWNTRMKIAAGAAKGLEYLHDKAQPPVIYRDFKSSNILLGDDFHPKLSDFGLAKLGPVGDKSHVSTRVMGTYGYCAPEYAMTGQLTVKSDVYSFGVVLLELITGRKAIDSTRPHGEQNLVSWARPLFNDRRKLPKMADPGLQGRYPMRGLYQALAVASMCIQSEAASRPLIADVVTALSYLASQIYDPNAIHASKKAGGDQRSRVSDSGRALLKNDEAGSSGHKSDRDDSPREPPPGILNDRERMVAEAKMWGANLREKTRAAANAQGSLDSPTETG

GmPBS1a = molecular target: T2, GmPBS1a
T2 chain: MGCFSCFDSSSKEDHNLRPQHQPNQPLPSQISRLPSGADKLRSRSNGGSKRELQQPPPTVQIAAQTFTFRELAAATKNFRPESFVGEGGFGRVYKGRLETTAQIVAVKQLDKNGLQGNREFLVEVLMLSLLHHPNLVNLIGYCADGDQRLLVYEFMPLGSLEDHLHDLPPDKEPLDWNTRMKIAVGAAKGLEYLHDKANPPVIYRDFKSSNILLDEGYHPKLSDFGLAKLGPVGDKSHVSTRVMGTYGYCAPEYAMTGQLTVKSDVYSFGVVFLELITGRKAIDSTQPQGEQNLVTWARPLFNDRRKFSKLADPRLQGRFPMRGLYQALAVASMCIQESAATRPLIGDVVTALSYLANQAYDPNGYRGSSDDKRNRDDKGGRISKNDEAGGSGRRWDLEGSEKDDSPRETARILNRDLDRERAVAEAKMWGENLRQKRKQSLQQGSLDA

AtPBS1:HA = molecular target: T3, AtPBS1:HA
T3 chain: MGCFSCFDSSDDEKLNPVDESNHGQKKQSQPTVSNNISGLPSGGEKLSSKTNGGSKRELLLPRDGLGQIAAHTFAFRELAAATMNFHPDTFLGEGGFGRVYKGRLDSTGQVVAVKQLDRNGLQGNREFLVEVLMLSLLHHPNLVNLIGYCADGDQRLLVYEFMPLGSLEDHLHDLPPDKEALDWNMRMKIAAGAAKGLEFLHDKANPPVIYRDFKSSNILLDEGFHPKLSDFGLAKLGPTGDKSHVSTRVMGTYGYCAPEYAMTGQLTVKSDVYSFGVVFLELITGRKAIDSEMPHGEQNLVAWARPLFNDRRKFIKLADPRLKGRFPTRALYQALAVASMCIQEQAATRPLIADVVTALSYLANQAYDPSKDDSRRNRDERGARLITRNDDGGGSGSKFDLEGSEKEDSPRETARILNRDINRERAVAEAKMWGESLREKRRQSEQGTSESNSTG

HvPBS1-2:HA = molecular target: T4, HvPBS1-2:HA
T4 chain: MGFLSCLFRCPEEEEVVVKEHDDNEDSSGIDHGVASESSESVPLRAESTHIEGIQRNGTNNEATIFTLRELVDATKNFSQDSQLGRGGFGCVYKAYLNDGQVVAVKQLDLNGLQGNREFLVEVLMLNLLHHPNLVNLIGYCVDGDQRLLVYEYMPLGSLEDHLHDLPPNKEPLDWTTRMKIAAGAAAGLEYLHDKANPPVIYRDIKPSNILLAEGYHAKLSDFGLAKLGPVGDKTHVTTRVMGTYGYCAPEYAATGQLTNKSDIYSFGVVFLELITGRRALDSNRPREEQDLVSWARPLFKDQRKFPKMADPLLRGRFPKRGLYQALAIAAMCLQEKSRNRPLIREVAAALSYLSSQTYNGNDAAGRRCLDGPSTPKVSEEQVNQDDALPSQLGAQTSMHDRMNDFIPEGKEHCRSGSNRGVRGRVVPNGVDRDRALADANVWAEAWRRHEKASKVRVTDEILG

GmPBS1c = molecular target: T5, GmPBS1c
T5 chain: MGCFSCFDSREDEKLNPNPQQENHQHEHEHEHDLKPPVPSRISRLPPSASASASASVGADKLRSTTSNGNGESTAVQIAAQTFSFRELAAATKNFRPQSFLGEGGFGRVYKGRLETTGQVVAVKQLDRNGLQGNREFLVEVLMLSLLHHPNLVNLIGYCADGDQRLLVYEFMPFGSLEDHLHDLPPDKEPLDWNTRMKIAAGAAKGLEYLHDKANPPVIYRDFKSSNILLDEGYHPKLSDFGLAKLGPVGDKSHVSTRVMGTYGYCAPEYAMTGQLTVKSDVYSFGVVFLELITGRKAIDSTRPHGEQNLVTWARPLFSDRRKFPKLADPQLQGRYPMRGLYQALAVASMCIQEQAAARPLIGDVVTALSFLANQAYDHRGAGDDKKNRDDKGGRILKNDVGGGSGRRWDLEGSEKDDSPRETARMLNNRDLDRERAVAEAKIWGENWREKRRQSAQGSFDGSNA

GmPBS1b = molecular target: T6, GmPBS1b
T6 chain: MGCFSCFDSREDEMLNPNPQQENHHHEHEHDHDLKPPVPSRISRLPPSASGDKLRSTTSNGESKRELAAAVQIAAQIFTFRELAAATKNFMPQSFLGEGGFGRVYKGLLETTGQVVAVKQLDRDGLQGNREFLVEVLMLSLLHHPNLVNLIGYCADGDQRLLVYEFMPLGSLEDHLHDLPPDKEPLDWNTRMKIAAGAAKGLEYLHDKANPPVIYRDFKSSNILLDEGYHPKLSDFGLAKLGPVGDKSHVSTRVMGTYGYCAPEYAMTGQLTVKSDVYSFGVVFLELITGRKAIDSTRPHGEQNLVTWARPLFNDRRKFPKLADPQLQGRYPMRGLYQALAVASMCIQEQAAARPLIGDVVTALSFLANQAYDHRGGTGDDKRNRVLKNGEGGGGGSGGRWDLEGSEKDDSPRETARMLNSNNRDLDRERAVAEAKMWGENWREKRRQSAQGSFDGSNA

B1: AvrPphB:myc (protein)
chain: MKIGTQATSLAVLHNQESHAPQAPIAVRPEPAHAIPEIPLDLAIRPRTRGIHPFLAMTLGDKGCASSSGVSLEDDSHTQVSLSDFSVASRDVNHNNICAGLSTEWLVMSSDGDAESRMDHLDYNGEGQSRGSERHQVYNDALRAALSNDDEAPFFTASTAVIEDAGFSLRREPKTVHASGGSAQLGQTVAHDVAQSGRKHLLSLRFANVQGHAIACSCEGSQFKLFDPNLGEFQSSRSAAPQLIKGLIDHYNSLNYDVACVNEFRVS
cleavage of the substrate (Western blot after transient co-expression in N. benthamiana) (HvPBS1-1:HA): HvPBS1-1:HA and HvPBS1-2:HA are each cleaved by AvrPphB:myc | cleavage of the substrate (GmPBS1a): AvrPphB induces cleavage of all three soybean PBS1 proteins | cleavage of the substrate (immunoblot after transient co-expression in N. benthamiana) (NbPBS1:HA): Co-expression with AvrPphB:myc, but not the protease inactive mutant, resulted in cleavage of NbPBS1:HA within 6 hours post-transgene expression | cleavage of the substrate (immunoblot after co-expression in N. benthamiana) (AtPBS1:HA): immunoblots showing cleavage of PBS1 proteins from Arabidopsis (At), soybean (Gm) and barley (Hv) by AvrPphB | cleavage of the substrate (Western blot after transient co-expression in N. benthamiana) (HvPBS1-2:HA): HvPBS1-1:HA and HvPBS1-2:HA are each cleaved by AvrPphB:myc | cleavage of the substrate (GmPBS1c): AvrPphB induces cleavage of all three soybean PBS1 proteins | cleavage of the substrate (GmPBS1b): AvrPphB induces cleavage of all three soybean PBS1 proteins
